From PMC4251702

Tests used:
[1] = target: rabbit muscle G-actin, biotinylated (rabbit) (UniProt P68135)
[2] = target: P. falciparum F-actin, biotinylated (P. falciparum 3D7 (endogenous in merozoites)) (UniProt Q8I4X0); test: BLI
[3] = target: P. falciparum G-actin, biotinylated (P. falciparum 3D7 (endogenous in merozoites)) (UniProt Q8I4X0); test: BLI

RH1 cytoplasmic tail domain peptide (residues 2942-2971)
initial rate of polymerization of 2.5 μM pyrene-labelled rabbit actin with 50 μM RH1 CTD peptide, without aldolase (control without addition 35, bovine serum albumin 34) (fluorescence units min^-1) [1]: 69

Plasmodium falciparum aldolase (from UniProt P14223 1-369) (enzyme)
Kd [2]: 370 nM
Kd [3]: 470 nM

PfMTRAP cytoplasmic tail domain peptide (residues 452-498)
initial rate of polymerization of 2.5 μM pyrene-labelled rabbit actin with 50 μM MTRAP CTD peptide, without aldolase (control without addition 35, bovine serum albumin 34) (fluorescence units min^-1) [1]: 66
